Experimental data as given in IntAct's records for PubMed 22752157.

B1: Kinase suppressor of Ras 1 (Mus musculus), Q61097 (parent)
chain: MDRAALRAAAMGEKKEGGGGGAAADGGAGAAVSRALQQCGQLQKLIDISIGSLRGLRTKCSVSNDLTQQEIRTLEAKLVKYICKQQQSKLSVTPSDRTAELNSYPRFSDWLYIFNVRPEVVQEIPQELTLDALLEMDEAKAKEMLRRWGASTEECSRLQQALTCLRKVTGLGGEHKMDSGWSSTDARDSSLGPPMDMLSSLGRAGASTQGPRSISVSALPASDSPVPGLSEGLSDSCIPLHTSGRLTPRALHSFITPPTTPQLRRHAKLKPPRTPPPPSRKVFQLLPSFPTLTRSKSHESQLGNRIDDVTPMKFELPHGSPQLVRRDIGLSVTHRFSTKSWLSQVCNVCQKSMIFGVKCKHCRLKCHNKCTKEAPACRITFLPLARLRRTESVPSDINNPVDRAAEPHFGTLPKALTKKEHPPAMNLDSSSNPSSTTSSTPSSPAPFLTSSNPSSATTPPNPSPGQRDSRFSFPDISACSQAAPLSSTADSTRLDDQPKTDVLGVHEAEAEEPEAGKSEAEDDEEDEVDDLPSSRRPWRGPISRKASQTSVYLQEWDIPFEQVELGEPIGQGRWGRVHRGRWHGEVAIRLLEMDGHNQDHLKLFKKEVMNYRQTRHENVVLFMGACMNPPHLAIITSFCKGRTLHSFVRDPKTSLDINKTRQIAQEIIKGMGYLHAKGIVHKDLKSKNVFYDNGKVVITDFGLFGISGVVREERRENQLKLSHDWLCYLAPEIVREMIPGRDEDQLPFSKAADVYAFGTVWYELQARDWPFKHQPAEALIWQIGSGEGVRRVLASVSLGKEVGEILSACWAFDLQERPSFSLLMDMLERLPKLNRRLSHPGHFWKSADINSSKVMPRFERFGLGTLESGNPKM

Variants of: B1
Conditions: with VRK2, Q86Y07-1
Chain of VRK2, Q86Y07-1 (Q86Y07 whole entry): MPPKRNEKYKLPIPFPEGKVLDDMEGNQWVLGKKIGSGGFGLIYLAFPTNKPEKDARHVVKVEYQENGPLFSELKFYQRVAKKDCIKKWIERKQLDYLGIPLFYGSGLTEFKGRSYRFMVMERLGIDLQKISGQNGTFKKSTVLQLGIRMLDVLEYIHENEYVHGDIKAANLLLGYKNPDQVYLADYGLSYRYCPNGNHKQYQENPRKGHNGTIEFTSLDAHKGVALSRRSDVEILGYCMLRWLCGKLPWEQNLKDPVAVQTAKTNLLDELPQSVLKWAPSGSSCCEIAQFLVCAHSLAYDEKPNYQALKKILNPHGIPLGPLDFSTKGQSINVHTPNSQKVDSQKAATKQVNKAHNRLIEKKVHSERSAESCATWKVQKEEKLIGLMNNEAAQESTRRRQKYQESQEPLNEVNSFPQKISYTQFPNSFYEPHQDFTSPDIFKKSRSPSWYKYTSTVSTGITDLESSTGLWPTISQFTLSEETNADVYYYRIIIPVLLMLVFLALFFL

Variant	effect of a mutation on the interaction
C809Y	decreasing interaction
